Laboratory results taken from publication PMC2621155.

Biological target: rapsyn, endogenous in C2C12 myotubes (mouse (endogenous in C2C12)) (UniProt P12672)
Test: co-IP; C2C12 myotube lysates, anti-rapsyn antibody and protein A agarose beads, blot for α-actinin; myotubes untreated, with agrin 10 ng/ml 18 hr, with agrin and STI-571, or with agrin and then 10 μM carbachol for 4 hr

UniProt P12672, sequence (P12672 whole entry): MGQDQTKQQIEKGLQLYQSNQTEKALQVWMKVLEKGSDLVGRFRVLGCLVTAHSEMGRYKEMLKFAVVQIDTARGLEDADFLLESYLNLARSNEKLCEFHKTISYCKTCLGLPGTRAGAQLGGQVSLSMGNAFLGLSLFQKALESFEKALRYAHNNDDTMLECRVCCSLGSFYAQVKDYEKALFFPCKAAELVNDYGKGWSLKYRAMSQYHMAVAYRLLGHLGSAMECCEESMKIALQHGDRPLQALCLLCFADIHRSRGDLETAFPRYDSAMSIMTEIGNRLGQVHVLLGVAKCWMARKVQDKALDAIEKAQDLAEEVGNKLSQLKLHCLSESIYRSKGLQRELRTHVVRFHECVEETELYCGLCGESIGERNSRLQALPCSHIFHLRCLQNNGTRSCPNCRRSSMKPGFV

“α-actinin, endogenous in myotubes (from UniProt Q9JI91 1-894) (natural protein)” gave a fold increase of the co-precipitation in agrin-treated against untreated myotubes of 6 to 10 fold.
